Assays:
enhanced GFP (EGFP) = assay: AUC; sedimentation velocity; 0.33, 0.65 and 1.3 mg mL^-1; 20 mM Tris pH 7.5, 150 mM NaCl; 50,000 rpm, 20 °C; absorbance at 280 nm; c(s) distributions and weight average sedimentation coefficients against concentration
[1] = target: superfolder GFP (sfGFP) [GFP: P42212]; assay: SEC-SAXS; in-line Superdex 75 10/300 GL; 50 µL loaded at approximately 50 mg mL^-1 (> approximately 10 mg mL^-1 after dilution on the column); 25 mM Tris pH 7.5, 150 mM NaCl; profiles compared with CRYSOL curves of monomer and dimer of the usGFP crystal structure
[2] = target: ultra-stable GFP (usGFP) [GFP: P42212]; assay: as above

Substance: enhanced GFP (EGFP)
- stoichiometry N (enhanced GFP (EGFP)): 2

Substance: superfolder GFP (sfGFP) (from UniProt P42212 1-238)
- stoichiometry N [1]: 2

Substance: ultra-stable GFP (usGFP) (from UniProt P42212 1-238)
- stoichiometry N [2]: 2

Source: paper PMC5766548
